Numbering of substitutions follows the chain as printed.
Legend:
[1] = target: T1, human IFIT1 (Homo sapiens, UniProt P09914 1-478); experiment: EMSA; 50 mM Tris pH 8.0 ([…], room temperature 20 min; […]; settings: protein: recombinant; tags: N-terminal 6xHis-SUMO (smt3) removed by Ulp1; label: none (SYBR Gold post-stain)
T1 sequence: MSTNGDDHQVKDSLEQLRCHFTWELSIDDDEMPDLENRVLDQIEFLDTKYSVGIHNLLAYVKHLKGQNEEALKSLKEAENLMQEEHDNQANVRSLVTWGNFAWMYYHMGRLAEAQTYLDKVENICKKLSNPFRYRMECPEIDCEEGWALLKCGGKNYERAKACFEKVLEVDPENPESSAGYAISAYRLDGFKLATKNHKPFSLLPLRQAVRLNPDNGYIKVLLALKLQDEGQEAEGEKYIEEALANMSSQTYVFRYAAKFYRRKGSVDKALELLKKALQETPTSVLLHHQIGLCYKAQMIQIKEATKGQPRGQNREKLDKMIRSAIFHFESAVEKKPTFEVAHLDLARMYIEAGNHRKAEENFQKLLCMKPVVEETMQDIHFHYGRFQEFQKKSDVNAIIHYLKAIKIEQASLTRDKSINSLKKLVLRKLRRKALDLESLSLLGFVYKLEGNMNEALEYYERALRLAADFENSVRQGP

[2] = target: T2, human IFIT1 R187H (Homo sapiens, UniProt P09914 1-478, R187H); experiment: as above; settings: protein: recombinant; tags: N-terminal 6xHis-SUMO (smt3) removed by Ulp1; label: none (SYBR Gold post-stain)
T2 sequence: T1 sequence with R187H

AUAGGCGGCGCAUGAGAGAAGCCCAGACCAAUUACCUACCC (ssRNA, 5' Cap0 (m7GpppA, no 2'-O methylation; at least 95% by LC/MS)) [Cap0 VEEV TC-83 5' UTR RNA (41 nt)]
binding result [1]: binds | binding result [2]: no binding

Reference: publication PMC12543323, “IFIT1 is rapidly evolving and exhibits disparate antiviral activities across 11 mammalian orders”
